Assay results from US20200283482A1, “BICYCLIC PEPTIDE LIGAND PRR-A CONJUGATES AND USES THEREOF” (BicycleRD Limited, priority 2017, published 2020).
Starred links: 1 amine or outer side, 2 acyl side, 3 side chain; linkers in the order of their positions; H or OH if unused. Positions of bridges follow the written chain, without caps; N, C: chain ends. Non-standard residues stand in square brackets, D forms with d. Residues, ends and D or L forms follow the SMILES beside them. *: point of attachment. X11 = CCCOc1nc(NC(=O)OCc2ccc(NC(=O)[C@H](CCCNC(N)=O)NC(=O)[C@@H](NC(=O)Cn3cc(CCC(=O)*)nn3)C(C)C)cc2)c2[nH]c(=O)n(Cc3ccc(OCCN(C)C)nc3)c2n1; X10 = CCCOc1nc(NC(=O)OCCSSC(C)CCC(=O)*)c2[nH]c(=O)n(Cc3ccc(OCCN(C)C)nc3)c2n1; 1Nal = N[C@@H](Cc1cccc2ccccc12)C(=O)O; TBMB = c1c(C[*:1])cc(C[*:3])cc1C[*:2]; Tle = CC(C)(C)[C@H](N)C(=O)O; βAla = NCCC(=O)O; Sar = CNCC(=O)O

Experiments:
Assay type in all cases: in vitro ADME
Plasma stability, rat = conditions: pH 7.4; rat plasma, 2 μM, 37° C.; read-out: T1/2 (rat)
Method: (§1) The pooled frozen mouse, rat, dog, monkey or human plasma is thawed in a water bath at 37° C. prior to experiment. Plasma is centrifuged at 4000 rpm for 5 min and the clots are removed if any. […] For positive controls, 100 μM intermediate solution is prepared by diluting 20 μL of the stock solution with 180 μL 45% MeOH/H2O. […] For compounds I-7 to […]-17, […]-22, and […]-33, at each time point (0, 1, 2, 4, 6 and 24 hr), reactions were stopped by removing the plates from water bath and 200 μL 20 mM NH4OAC mix well first and then adding 800 μL of ice-cold stop solution (200 ng/mL Labetalol, 200 ng/mL Tolbutamide, 500 ng/mL N6-Ben and 40 mM DBAA in 100% Methanol). […] Sample plates were vortexed immediately on a plate shaker at 800 rpm for 10 min and then centrifuged at 4,000 rpm for 10 min. An aliquot of supernatant (200 μL) is transferred from each well before submitting to LC-MS/MS analysis. The percentage of test compound remaining at the individual time points relative to the 0 hour sample is calculated using following equation: Percent Remaining=100×(PAR at appointed incubation time/PAR at T0 time) where PAR is the peak area ratio of analyte versus internal standard (IS).

Plasma stability, mouse = conditions: pH 7.4; mouse plasma, 2 μM, 37° C.; read-out: T1/2 (mouse)
Method: as §1

Plasma stability, dog = conditions: pH 7.4; dog plasma, 2 μM, 37° C.; read-out: T1/2 (dog)
Method: as §1

Plasma stability, cyno = conditions: cynomolgus monkey, pH 7.4; cyno plasma, 2 μM, 37° C.; read-out: T1/2 (cyno)
Method: as §1

Plasma stability, human = conditions: pH 7.4; human plasma, 2 μM, 37° C.; read-out: T1/2 (human)
Method: as §1

Measured: half-life at 2 μM

CCCOc1nc(NC(=O)OCCSSC(C)CCC(=O)NCCC(=O)N(C)CC(=O)N(C)CC(=O)N(C)CC(=O)N(C)CC(=O)N(C)CC(=O)N(C)CC(=O)N(C)CC(=O)N(C)CC(=O)N(C)CC(=O)N(C)CC(=O)N[C@@H](C)C(=O)N[C@H]2CSCc3cc4cc(c3)CSC[C@H](NC(=O)[C@@H](C)NC(=O)[C@H](Cc3cccc5ccccc35)NC(=O)[C@H](CCC(=O)O)NC(=O)[C@H](CC(N)=O)NC(=O)[C@@H](C)NC2=O)C(=O)N[C@@H](CCC(=O)O)C(=O)N[C@@H](CC(=O)O)C(=O)N[C@@H](Cc2ccccc2)C(=O)N[C@@H](Cc2ccc(O)cc2)C(=O)N[C@@H](CC(=O)O)C(=O)N[C@@H](C(C)(C)C)C(=O)N[C@H](C(N)=O)CSC4)c2[nH]c(=O)n(Cc3ccc(OCCN(C)C)nc3)c2n1 (stereo partly shown) [I-17] ({X10-βAla}-[Sar][Sar][Sar][Sar][Sar][Sar][Sar][Sar][Sar][Sar]AC[dA]NE[1Nal][dA]CEDFYD[Tle]C-NH2; linker 12-18-25 via TBMB)
< 2 h: all assays above

CCCOc1nc(NC(=O)OCc2ccc(NC(=O)[C@H](CCCNC(N)=O)NC(=O)[C@@H](NC(=O)Cn3cc(CCC(=O)NCCC(=O)N(C)CC(=O)N(C)CC(=O)N(C)CC(=O)N(C)CC(=O)N(C)CC(=O)N(C)CC(=O)N(C)CC(=O)N(C)CC(=O)N(C)CC(=O)N(C)CC(=O)N[C@@H](C)C(=O)N[C@H]4CSCc5cc6cc(c5)CSC[C@H](NC(=O)[C@@H](C)NC(=O)[C@H](Cc5cccc7ccccc57)NC(=O)[C@H](CCC(=O)O)NC(=O)[C@H](CC(N)=O)NC(=O)[C@@H](C)NC4=O)C(=O)N[C@@H](CCC(=O)O)C(=O)N[C@@H](CC(=O)O)C(=O)N[C@@H](Cc4ccccc4)C(=O)N[C@@H](Cc4ccc(O)cc4)C(=O)N[C@@H](CC(=O)O)C(=O)N[C@@H](C(C)(C)C)C(=O)N[C@H](C(N)=O)CSC6)nn3)C(C)C)cc2)c2[nH]c(=O)n(Cc3ccc(OCCN(C)C)nc3)c2n1 [I-18] ({X11-βAla}-[Sar][Sar][Sar][Sar][Sar][Sar][Sar][Sar][Sar][Sar]AC[dA]NE[1Nal][dA]CEDFYD[Tle]C-NH2; linker 12-18-25 via TBMB)
< 2 h: all assays above
